Consider 4 molecules from paper PMC12212125, “Constitutively active Arabidopsis cryptochrome two alleles identified using yeast selection and deep mutational scanning” (The Journal of Biological Chemistry, 2025).

Experiment [1] addresses T1, pCRY-PHR (plant cryptochrome pCRY, PHR domain) (Chlamydomonas reinhardtii, UniProt Q42696, D393S).
T1 construct: gene CPH1; PHR domain, amino acids 1-504, N-terminal His6 and C-terminal StrepII tags (printed for D393S), E. coli BL21(DE3), pET-28a(+); theoretical mass 59 kDa, wild type monomeric in the dark
The experiment is described as follows: UV-vis absorbance and time-resolved UV-vis difference spectroscopy of purified protein. The experiment is classed as binding. To be noted: 50 mM phosphate pH 7.8, 100 mM NaCl, 3 mM ATP, 1% glycerol, 10 °C, with or without 2 mM DTT; co-purified chromophore; time-resolved spectra at 13 °C without DTT.

The target in experiment [2] is pCRY-PHR D393S (amino acids 1-504) (Chlamydomonas reinhardtii). The experiment is described as follows: SEC; Superdex 200 Increase 10/300 GL, under light exclusion at 4 °C, 50 mM Tris pH 7.8, 100 mM NaCl, 1 mM ATP, 1 mM MgCl2; samples at OD450 = 1; apparent masses from calibration. (In general: SEC sorts molecules by how far they enter the pores of the column.)
The target of experiment [3] is Region II mutations (V367M, K368E, Y399S, S401F, P405L) placed in the CRY2PHR background. The experiment is described as follows: two-hybrid; BD-CRY2PHR (1-498) variants and AD-CIB1, AH109 x Y187, beta-galactosidase reporter (Miller Units, ONPG), dark for 2 h.
Experiment [4] concerns the target T2, CRY2PHR (residues 1-498 of CRY2, lacking the CCE), Gal4BD fusion, wild type (Arabidopsis thaliana, UniProt Q96524 1-498).
T2 construct: Cryptochrome 2 (CRY2), Arabidopsis thaliana, photolyase homology region, residues 1-498; also called BD-CRY2PHR; pDBTrp-CRY2PHR; source: yeast two-hybrid fusion (AH109 x Y187)
In words: two-hybrid; BD-CRY2PHR (1-498) variants and AD-CIB1, AH109 x Y187, beta-galactosidase reporter (Miller Units, ONPG), light for 2 h. To be noted: partners not purified.

T2 sequence (Q96524 1-498): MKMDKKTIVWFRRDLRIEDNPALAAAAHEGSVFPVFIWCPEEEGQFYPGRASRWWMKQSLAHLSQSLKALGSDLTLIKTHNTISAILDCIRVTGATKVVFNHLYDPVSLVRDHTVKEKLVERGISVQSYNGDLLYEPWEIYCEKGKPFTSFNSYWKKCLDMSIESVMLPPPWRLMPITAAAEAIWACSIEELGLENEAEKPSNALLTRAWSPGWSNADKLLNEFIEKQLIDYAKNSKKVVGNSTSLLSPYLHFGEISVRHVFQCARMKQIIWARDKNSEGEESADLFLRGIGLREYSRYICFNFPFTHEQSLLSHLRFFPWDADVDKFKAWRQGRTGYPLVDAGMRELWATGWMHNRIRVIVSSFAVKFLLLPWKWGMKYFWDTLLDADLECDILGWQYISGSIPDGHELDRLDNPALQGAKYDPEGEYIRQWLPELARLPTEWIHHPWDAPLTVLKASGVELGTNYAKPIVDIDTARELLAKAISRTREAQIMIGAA
T1 sequence (Q42696 entry or part of it D393S): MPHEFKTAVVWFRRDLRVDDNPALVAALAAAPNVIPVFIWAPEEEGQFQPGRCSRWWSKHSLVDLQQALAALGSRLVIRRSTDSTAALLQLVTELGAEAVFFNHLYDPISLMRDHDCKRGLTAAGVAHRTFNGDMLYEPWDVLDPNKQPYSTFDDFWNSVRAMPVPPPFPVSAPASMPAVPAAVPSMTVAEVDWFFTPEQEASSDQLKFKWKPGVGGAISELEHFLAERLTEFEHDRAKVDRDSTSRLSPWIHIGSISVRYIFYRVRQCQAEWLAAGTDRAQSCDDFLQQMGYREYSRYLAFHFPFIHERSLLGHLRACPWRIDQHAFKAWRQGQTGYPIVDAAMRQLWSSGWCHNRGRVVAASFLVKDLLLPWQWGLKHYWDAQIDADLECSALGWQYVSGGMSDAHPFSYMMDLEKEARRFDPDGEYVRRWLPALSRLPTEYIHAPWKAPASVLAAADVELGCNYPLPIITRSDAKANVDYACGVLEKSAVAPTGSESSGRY

On to `Cc1cc2nc3c(=O)[nH]c(=O)nc-3n(C[C@H](O)[C@H](O)[C@H](O)COP(=O)(O)OP(=O)(O)OC[C@H]3O[C@@H](n4cnc5c(N)ncnc54)[C@H](O)[C@@H]3O)c2cc1C` [FAD], for which, in experiment [1], the “UV-vis absorbance and time-resolved UV-vis difference spectroscopy of purified p” value is recorded as “The D393S mutant forms homomers in the dark with oxidized FAD bound”.

By stoichiometry N is commonly meant the number of molecules, sites or subunits per partner or assembly. In the case of “pCRY-PHR D393S (amino acids 1-504) (domain or fragment)”, the stoichiometry N in experiment [2] turned out to be 2.

B1: CRYPTOCHROME-… BASIC-HELIX-LOOP-HELIX 1 (CIB1), Gal4AD fusion (natural protein)
chain: MNGAIGGDLLLNFPDMSVLERQRAHLKYLNPTFDSPLAGFFADSSMITGGEMDSYLSTAGLNLPMMYGETTVEGDSRLSISPETTLGTGNFKKRKFDTETKDCNEKKKKMTMNRDDLVEEGEEEKSKITEQNNGSTKSIKKMKHKAKKEENNFSNDSSKVTKELEKTDYIHVRARRGQATDSHSIAERVRREKISERMKFLQDLVPGCDKITGKAGMLDEIINYVQSLQRQIEFLSMKLAIVNPRPDFDMDDIFAKEVASTPMTVVPSPEMVLSGYSHEMVHSGYSSEMVNSGYLHVNPMQQVNTSSDPLSCFNNGEAPSMWDSHVQNLYGNLGV
For the molecule B1, in experiment [3], the fold higher basal (dark) interaction than wild-type CRY2PHR (beta-galactosidase reporter) is 4 to 7 fold.

B2: CRYPTOCHROME-INTERACTING BASIC-HELIX-LOOP-HELIX 1 (CIB1), Gal4AD fusion (natural protein, Arabidopsis thaliana, UniProt Q8GY61 1-335, looked up)
chain: MNGAIGGDLLLNFPDMSVLERQRAHLKYLNPTFDSPLAGFFADSSMITGGEMDSYLSTAGLNLPMMYGETTVEGDSRLSISPETTLGTGNFKKRKFDTETKDCNEKKKKMTMNRDDLVEEGEEEKSKITEQNNGSTKSIKKMKHKAKKEENNFSNDSSKVTKELEKTDYIHVRARRGQATDSHSIAERVRREKISERMKFLQDLVPGCDKITGKAGMLDEIINYVQSLQRQIEFLSMKLAIVNPRPDFDMDDIFAKEVASTPMTVVPSPEMVLSGYSHEMVHSGYSSEMVNSGYLHVNPMQQVNTSSDPLSCFNNGEAPSMWDSHVQNLYGNLGV
notes: CIB1, transcription factor, Arabidopsis thaliana; also called GalAD-CIB1; Gal4AD-CIB1; source: yeast two-hybrid fusion (MaV203; Y187, mated to AH109)
Regarding B2, the “fold increase of interaction (beta-galactosidase reporter) in light over dark” value in experiment [4] came out at 4 fold.
